Experimental findings from US20180334496A1 (KODIAK SCIENCES, published 2018) are described below.

The target of this test is T1, human Complement Factor D (CFD), purified from human serum (human, UniProt P00746 26-253).
T1 construct: serum purified (CompTech A136); also called serum purified CFD; hCFD-Comptech
Briefly: SPR MX96, mAbs amine-coupled, CFD injected.

T1 sequence (P00746 26-253): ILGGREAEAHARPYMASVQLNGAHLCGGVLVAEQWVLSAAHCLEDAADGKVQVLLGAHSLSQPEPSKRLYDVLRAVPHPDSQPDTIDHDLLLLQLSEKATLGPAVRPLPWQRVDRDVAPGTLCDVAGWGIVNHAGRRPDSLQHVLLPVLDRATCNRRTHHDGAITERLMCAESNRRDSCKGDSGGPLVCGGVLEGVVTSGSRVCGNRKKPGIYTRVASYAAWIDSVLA

B1: KCD131 (antibody, V domains shown)
VH: QVQLQQSGPELVKPGASVKISCKASAYTFTDYYINWVKQRPGQGPEWIGWIFPGSNSTYSNEKFEVKATLTVDESSSTAYMLLSSLTSEDSAVYFCARLGYFGSSYHALDYWGQGTSVTVSS
VL: DIQMTQSPASLSVSVGETVTITCRASENIYSHLAWFQQKQGKSPRLLVYSATNLPDGVPSRFSGSGSGTQYSLKINILQSEDFGSYYCQHFWGTPWTFGGGTKLEIK
As usually defined, the Kd is the equilibrium constant for the complex coming apart. Read a low Kd as tighter binding. For B1, binding was put at a Kd of 0.14 nM.

B2: KCD139 (antibody, V domains shown)
VH: EVQLQQSGAELVRPGSSVKMSCKTSGYTFTSYGINWVKQRPGQGLEWIGYIYIANGYTENNEKFKGKAKLTSDISSSTAYMQLSSLTSEDSAIYFCARRFDYAGALDYWGQGTSVTVSS
VL: DIVLTQSPASLAVSLGQRATISCRASESVDSYGNSFMHWYQQKPGQPPKLLIHRASNLESGIPARFSGSGSRTDFTLTINPVEADDVAIYYCQQTNDDPYTFGGGTNLEIK
For the molecule B2, the Kd came to 5.28 nM.

B3: KCD110 (antibody, V domains shown)
VH: EVQLQQSGPELVKPGASVKISCKASGYSFTGYYMHWVKQSHGNILDWIGYIDPDNGVSSKNQKFTGKATVTADKSSSTAYMELRSLTSEDSAVYYCAGYYGSSWYWYFDVWGTGTTVTVSS
VL: QIVLSQSPAILSASPGEKVTMTCRASSSVSYMHWYQQKPGSSPKPWIYATSNLASGVPARFSGSGSGTSYSLTISRVEAEDAATYYCQQWSSNPYTFGGGTKLEIK
For the molecule B3, the Kd amounted to 3.71 nM.

B4: KCD008 (antibody, V domains shown)
VH: EVQLQQSGPELVKAGASVKMSCTASGFNIKDTYMHWVKQRPEQGLAWIGRIDPANGNIKYDPKFQGKATITADTSSNTAYLQLSSLTSDDTAVYYCTSAMDYWGQGTSVTVSS
VL: QIVLTQSPEIMSASPGEKVTMTCSARSSVSYMYWYQQKPGSSPRLLIYDTSNLASGVPVRFSGSGSGTSYSLTISRMETEDAATYYCQQWSTYPFTFGSGTKLEIK
For the molecule B4, binding was characterised by a dissociation constant (Kd) of 4.38 nM.

B5: KCD047 (antibody, V domains shown)
VH: EVQLQQSGAEFVKPGASVRLSCTASGFNIKDTYMHWVKQRPEQGLEWIGRIDPANGYTKDDPKFQGKATITADTSSNTAYLQLSSLTSEDTAVYYCASAMDYWGQGTSVTVSS
VL: QIVLTQSPAVMSASPGEKVAMTCSASSSVTYMYWYQQKPGSSPRLLIYDTSNLASGVPVRFSGSGSGTSYSLTISRMEAEDAATYYCQQWSTYPFPFGSGTKLEIK
The molecule B5 yielded an equilibrium dissociation constant (Kd) of 4.37 nM.

B6: KCD040 (antibody, V domains shown)
VH: EVQLQQSGAELVKPGASVKLSCTASDFNIKDTYMHWVMQRPEQGLEWIGKIDPANGNTEFDPKFQGKATITADTSSNTAYLQLTSLTSEDTAVYYCTRAMDYWGQGTSVTVSS
VL: QIVLTQSPAIMSASPGEKVTMTCSAGSSVSYMYWYQQKPGSSPRVLIYDTSNLASGVPVRFSGSGSGTSYSLTISRMEAEDAATYYCQQWSNYPYTFGGGTKLEIK
On to B6, for which the Kd is 1.93 nM.

B7: KCD136 (antibody, V domains shown)
VH: EVQLQQSVAELVRPGASVKLSCSASGFNIKNTYMHWVNQRPEQGLEWIGRIDPANGITKYAPNFQGKATITADTSSNTAYLQLSNLTSEDTAIYYCTRAMDYWGQGTSVTVSS
VL: QIVLTQSPAIMSASPGEKVTMTCSASSSVSYMYWYQQKPGSSPRLLIYDISNLASGVPVRFSGSGSGTSYSLTISRMEAEDAATYYCQQWDTYPWTFGGGTKLEIK
The molecule B7 had a Kd of 4.46 nM.

B8: KCD013 (antibody, V domains shown)
VH: EVQLQQSGAELVKPGASVKLSCTASGFKIKDTYMHWVKERPDQGLEWIGRIDPANGNTKYDPKFQGKATITADTSSNTAYLQLSSLTSEDTAVYYCANAMDYWGQGTSVTVSS
VL: QIILTQSPAIMSASPGEKVTMTCSASSSVSNMYWYQQKPGSSPRLLIYDTSNLASGVPVRFSGSGSGASYSLTISRMEAEDAATYYCQQWSSYPWTFGGGTKLEIK
B8 returned a Kd of 7.32 nM.

B9: KCD004 (antibody, V domains shown)
VH: EVQLQQSGAELVRPGSSVKMSCKTSGKTFTSHGINWVKQRPGQGLEWIGYIYIGNGYNEYNEKFKGKATLTSDTSSSTAYMQLSSLTFEDSAIYFCVRKAYGNYGFDDWGQGTTLTVSS
VL: DIQMTQSPTSLSASLGESVSLTCRASQEISGYLNWLQQKPDGSIKRLIYAASTLDSGVPKRFSGSRSGSDYSLTISSLESEDFADYYCLQYANYPFTFGSGTKLEVK
notes: also called OG2063
Take B9: the affinity, expressed as Kd, was 0.353 nM.

B10: KCD126 (antibody, V domains shown)
VH: EVQLQQSGAELVRPGSSVKMSCKTSGKTFTSHGINWVKQRPGQGLEWIGYIYIGNGYNEYNEKFKGKATLTSDTSSSTAYMQLSSLTFEDSAIYFCVRKAYGNYGFDDWGQGTTLTVSS
VL: DIQMTQSPTSLSASLGESVSLTCRASQEISGNLNWLQQKPDGSIKRLIYAASTLDSGVPKRFSGSRSGSDYSLTISSLESEDFADYYCLQYANYPFTFGSGTKLEVK
As to B10, the Kd amounted to 0.34 nM.

B11: KCD125 (antibody, V domains shown)
VH: EVQLQQSGAELVRPGSSVKMSCKTSGNTFTSYGINWVKQRPGQGLEWIGYIYIGTGYTEYNEKFKGKATLTSDTSSSTAYMQLSSLTSEDSAIYFCVRKAYGNYGFDYWGQGTTLTVSS
VL: DIQMTQSPSSLSASLGERVSLTCRASQEISGYLSWLQQKPDGTIKRLIYAASTLDSGVPKRFSGSRSGSDYSLTISSLESEDFADYYCLQYASYPFTFGSGTKLEIK
Regarding B11, the affinity, expressed as Kd, was 3.75 nM.

B12: KCD205 (antibody, V domains shown)
VH: EVQLQQSGAELVRPGSSVKMSCKTSGNTFTSHGINWVKQRPGQGLEWIGYIYIGNGYNEYNEKFKGKATLTSDTSSSTAYMQLSSLTSEDSAIYFCVRKAYGNYGFDDWGQGTTLTVSS
VL: DIQMTQSPSSLSASLGERVSLTCRASQEISGYLSWLQQKPDGTIKRLIYAASTLDSGVPKRFSGSSSGSDYSLTISSLESDDFADYYCLQYASYPFTFGSGTKLEIK
B12 came in with a Kd of 2.98 nM.

B13: KCD135 (antibody, V domains shown)
VH: EVQLQQSGPELVKPGASVRMSCKASGYIFTDYSIHWVKQSHGKSLEWIGYINPNNGGTSYNQKFKGKATLTVNKSSTTAYMELRSLTSEDSAVYFCARDTTIVGDYWGQGTTLTVSS
VL: DIVMTQSQKFMSTSVGDRVSVTCKASQHVGTNVVWYQQKPGQSPKALIYSASYRYSGVPDRFSGSGSGTDFTLTISNVQSEDLAEYFCQQFNSYPLTFGGGTKLEIK
As to B13, the Kd was determined as 21.2 nM.

B14: KCD030 (antibody, V domains shown)
VH: QVQLQQSGAELAKPGASVKMSCKASGYTFTNYWMHWVKQRPGQGLEWIGYINPSIGYTEYNQKFKDKATLTADKSSSTAYMQLSSLTSEDSAVFYCATFIYYAMDYWGQGTSVTVSS
VL: DIQMNQSPSSLSASLGDTITITCHASQNINVWLSWYQQKPGNIPKLLIYKASNLHTGVPSRFSGSGSGTGFTLTISSLQPEDIATYYCQQGQSYPYTFGGGTKLEIK
Turning to B14, the Kd is 4.17 nM.

B15: KCD210 (antibody, V domains shown)
VH: EVQLQQSGPVLVKPGASVTMSCKASGYTFTEYYMNWVKQSHGKSLDWIGVINPYSGGTSYKQKFKDKATLTVDKSSSTAYMELNGLTSEDSAVYFCVRGGLRRNYFDYWGQGTTLTVSS
VL: EIVLTQSPALMTASPGEKVTITCSVSSSISSTNLHWYQQKSGTSPKPWIFGTSNLASGVPVRFSGSGSGTSYSLTISNMEAEDAATYYCQQWNSYPFTFGTGTKLEIK
In turn, B15 returned a Kd of 3.52 nM.

B16: KCD065 (antibody, V domains shown)
VH: QVQLQQSGAELARPGASVKMSCKASGYTFTTYTIHWVKQRPGQGLEWIGYINPSSDFTNYNQNFADKATLTADRSSSTAYMQLSSLTSEESAVYYCAIRLGYDRQGWYFDVWGAGTTVTVSS
VL: DIVMTQSHKFLSTSLGDRVSITCKASQDVGSAVAWYQQKPGQSPDLLIYWTFTRHTGVPDRFTGSRSGTDFTLTISNVQSGDLADYFCQQYSNYPLTFGGGTKLEIK
B16 came in with a Kd of 3.28 nM.

B17: KCD114 (antibody, V domains shown)
VH: EVQLQQSGPELVKPGASVKISCKASGYSFTAYYMNWVKQSPEKSLEWIGDINPSTGGTTYNQNFKAKATLTVDKSSSTAYMHLKSLTSEDSAVYYCATTYYSGNSYVGFAYWGQGTLVTVSA
VL: DIVMTQSHKFMSTSVGDRVSITCKASQDVSTAVAWYQQKPGQSPKLLIFWASTRHTGVPDRFTGSGSGTDYTLTISSVQAEDLALYYCQQHYSTPWTFGGGTKLEIK
B17 returned a Kd of 8.06 nM.

B18: KCD066 (antibody, V domains shown)
VH: QVQLQQSAAELARPGASVKMSCKASGYTFTDYTMHWVKQRPGQGLEWIGYINPSGGYTDYNQKFKDKTALTADKSSSTAYMQLSSLTSEDSAVYYCARRRDYWFAYWGQGTLVTVSA
VL: DIVMSQSPSSLAVSVGEKVTMSCKSSQSLLYSGNQKNYLAWYQQKPGQSPKLLIYWASTRESGVPDRFTGSGSGTDFTLTISSVKAEDLAVYYCHQYYSYLTFGAGTKLELK
As to B18, the affinity, expressed as Kd, was 2.88 nM.

B19: KCD018 (antibody, V domains shown)
VH: QVQLQQSAAELARPGASVKMSCKASGYTFTSYTVHWVKQRPGQGLEWIGYINPSSGFTDYNQKFKDKTTLTADISSSTAYIQLSSLTSEDSAVYYCARRGVNWSWFAYWGQGTLVTVSA
VL: NIMMTQSPSSLAVSAGEKVTMSCKSSQSVLYSSNQKNYLAWYQQKPGQSPQLLIYWASTRESGVPERFTGSGSGTDFTLTISSVQAEDLAVYYCHQYLSSWTFGGGTKLEIK
As to B19, binding was put at a Kd of 40.8 nM.

B20: KCD224 (antibody, V domains shown)
VH: QVQLKESGPGLVAPSQSLSITCTVSGFSLTSYGVDWIRQSPGKGLEWLGVIWGVGSTNYNSALKSRLSISKDNSKSQVFLKMNSLQTDDTAMYYCARSYDGSYWYFDVWGTGTTVTVSS
VL: DIQMTQTTSSLSASLGDRVTISCRASQVISNYLNWYQQKPDGTVKLLIYYTSRLHSGVPSRFSGSGSGTDYSLTISNLEPEDIATYYCQQYSKLPYTFGSGTKLEIK
The molecule B20 registered a Kd of 1.17 nM.

B21: KCD075 (antibody, V domains shown)
VH: QVQLLQPGAELVRPGTSVKLSCKASGYTFSNYWINWVKQRPGQGLEWIGNIYPSDSSINYNQKFKDKATLTVDKSSTTAYMQLSSPTSEDSAVYYCTGTDWYFDVWGAGTTVTVSS
VL: DIQMTQTTSSLSASLGDRVTISCSGGQGISNYLNWYQQKPDGTFKLLIYYTSTLHSGVPSRFSGSGSGTDYSLTISNLEPEDVATYYCQQYSKLPYTFGGGTKLEIK
For B21, the affinity, expressed as Kd, was 3.75 nM.
